Assay [1] has as its target HLA-B*51:01. Kind of assay: IEDB peptide-MHC binding, purified MHC/direct/fluorescence; filed as Kd, often an IC50 or EC50 that approximates it; ≥ and ≤ were set here for values at or beyond the usual limits of such assays.
The target of assay [2] is HLA-B*07:02. Described as above.
In assay [3] the target is HLA-B*15:09. Described as above.
The target in assay [4] is HLA-B*39:01. Kind of assay: IEDB peptide-MHC binding, purified MHC/competitive/fluorescence; filed as Kd, often an IC50 or EC50 that approximates it; ≥ and ≤ were set here for values at or beyond the usual limits of such assays.
Assay [5] concerns the target HLA-A*01:01. Kind of assay: IEDB peptide-MHC binding, purified MHC/direct/fluorescence; filed as Kd, often an IC50 or EC50 that approximates it; ≥ and ≤ were set here for values at or beyond the usual limits of such assays.
Assay [6] concerns the target HLA-A*02:01. Described as above.
Assay [7] deals with HLA-A*03:01. Described as above.
Assay [8] concerns the target HLA-A*11:01. Described as above.
The target in assay [9] is HLA-A*69:01. Described as above.
Assay [10] addresses HLA-B*15:01. Described as above.
For assay [11], the target named is HLA-B*15:17. The assay is described as above. The following applies: source organism: Influenza A virus (A/duck/Hokkaido/1130/01(H1N1)).
Assay [12] has as its target HLA-B*18:01. Described as above.
The target of assay [13] is HLA-B*27:05. Described as above.
For assay [14], the target named is HLA-B*40:01. The description is as above.
The target of assay [15] is HLA-B*46:01. Described as above.
Assay [16] has as its target HLA-B*48:01. The description is as above.
The target in assay [17] is HLA-B*57:01. The assay is described as above.
Assay [18] has as its target HLA-B*58:01. The assay is described as above.
Assay [19] has as its target HLA-A*02:03. Briefly: IEDB peptide-MHC binding, purified MHC/competitive/fluorescence; filed as Kd, often an IC50 or EC50 that approximates it; ≥ and ≤ were set here for values at or beyond the usual limits of such assays. The following applies: source organism: Influenza A virus (A/81/HO).
Assay [20] addresses HLA-A*31:01. The description is as above.
Assay [21] concerns the target HLA-B*39:01. Briefly: IEDB peptide-MHC binding, purified MHC/direct/fluorescence; filed as Kd, often an IC50 or EC50 that approximates it; ≥ and ≤ were set here for values at or beyond the usual limits of such assays.
For assay [22], the target named is HLA-A*02:11. Described as above. The following applies: source organism: Rickettsia prowazekii.
For assay [23], the target named is HLA-A*02:19. Described as above. The settings on record: source organism: Rickettsia prowazekii.
Assay [24] addresses HLA-A*03:01. Kind of assay: IEDB peptide-MHC binding, purified MHC/competitive/fluorescence; filed as Kd, often an IC50 or EC50 that approximates it; ≥ and ≤ were set here for values at or beyond the usual limits of such assays.
Assay [25] addresses HLA-B*08:01. Kind of assay: IEDB peptide-MHC binding, purified MHC/competitive/radioactivity; filed as Kd, often an IC50 or EC50 that approximates it; ≥ and ≤ were set here for values at or beyond the usual limits of such assays. The following applies: source organism: Dengue virus 4 Philippines/H241/1956.
The target of assay [26] is HLA-B*15:01. Briefly: IEDB peptide-MHC binding, purified MHC/competitive/fluorescence; filed as Kd, often an IC50 or EC50 that approximates it; ≥ and ≤ were set here for values at or beyond the usual limits of such assays. The following applies: source organism: Salmonella enterica subsp. enterica serovar Typhi.
Assay [27] addresses HLA-A*29:02. Briefly: IEDB peptide-MHC binding, purified MHC/direct/fluorescence; filed as Kd, often an IC50 or EC50 that approximates it; ≥ and ≤ were set here for values at or beyond the usual limits of such assays.
Assay [28] has as its target HLA-A*31:01. The description is as above.
In assay [29] the target is HLA-B*44:02. Described as above. The settings on record: source organism: Mycolicibacterium gilvum.
For assay [30], the target named is HLA-A*24:03. The assay is described as above. The settings on record: source organism: Convict Creek 107 virus.
The target of assay [31] is HLA-A*68:02. The description is as above. The settings on record: source organism: Convict Creek 107 virus.
The target in assay [32] is HLA-B*08:01. Described as above. The settings on record: source organism: Orthohantavirus andesense.
In assay [33] the target is HLA-A*26:01. Briefly: IEDB peptide-MHC binding, purified MHC/competitive/fluorescence; filed as Kd, often an IC50 or EC50 that approximates it; ≥ and ≤ were set here for values at or beyond the usual limits of such assays. The following applies: source organism: Orthohantavirus sinnombreense.
Assay [34] has as its target HLA-B*15:17. The assay is described as above. The following applies: source organism: Orthohantavirus sinnombreense.
Assay [35] addresses HLA-B*27:03. The assay is described as above. The settings on record: source organism: Orthohantavirus sinnombreense.
Assay [36] has as its target HLA-B*51:01. The assay is described as above. The settings on record: source organism: Orthohantavirus sinnombreense.
Where [37] appears, read: source organism: Giardia lamblia ATCC 50803.
Setting [38] is: source organism: Influenza A virus (A/duck/Hokkaido/1130/01(H1N1)).
Where [39] appears, read: source organism: Vibrio parahaemolyticus AQ3810.
[40] abbreviates: source organism: Rickettsia prowazekii.
Setting [41] is: source organism: Escherichia coli O139:H28 str. E24377A.
The mark [42] stands for this setting: source organism: Bacillus anthracis.
Setting [43] is: source organism: Salmonella enterica subsp. enterica serovar Typhi.
[44] abbreviates: source organism: Mycolicibacterium gilvum.
Setting [45] is: source organism: Shigella boydii.
Where [46] appears, read: source organism: Orthohantavirus andesense.

In turn, AVSRGTAKL registered a Kd in assay [1] (source organism: Alkhumra hemorrhagic fever virus) of at least 20 µM.
As for EALAMCLPY, the equilibrium dissociation constant (Kd) in assay [2] (setting [37]) was 5.2 µM; in assay [1] (setting [37]), at least 20 µM.
Take EHFLGIWGL: the Kd in [3] (source organism: Bacillus cereus H3081.97) is 0.094 µM; in assay [4] (source organism: Bacillus thuringiensis str. Al Hakam), 0.0179 µM.
As to ELRSRYWAI, the Kd is at least 20 µM in assay [5] (setting [38]); at least 20 µM in assay [6] (setting [38]); at least 20 µM in assay [7] (setting [38]); at least 20 µM in [8] (setting [38]); 0.151 µM in assay [9] (setting [38]); at least 20 µM in [2] (setting [38]). The dissociation constant Kd in assay [10] (setting [38]) was at least 20 µM; in assay [11], at least 20 µM; in assay [12] (setting [38]), 2.45 µM; in assay [13] (setting [38]), at least 20 µM; in assay [14] (setting [38]), at least 20 µM; in [15] (setting [38]) it was at least 20 µM. In addition, the Kd in assay [16] (setting [38]), in [1] (setting [38]), in [17] (setting [38]), in assay [18] (setting [38]), in assay [19] and in assay [20] (source organism: Influenza A virus (A/81/HO)) was at least 20 µM in each case.
Take EQYGPRHTL: the figures for the Kd in assay [3] (setting [39]) and in [21] (setting [39]) were 0.18 µM and 0.004 µM, respectively.
For FGSGWTWVV, the Kd in assay [6] (setting [40]) is 0.669 µM; in assay [22] it was at most 0.001 µM; in assay [23], at most 0.001 µM; in [9] (setting [40]) it was 1.18 µM.
Sequence FHGAKEIAL displayed a Kd in assay [21] (source organism: Influenza A virus H3N2) of 0.175 µM.
For GINWKHPKR, the results for the Kd in [24] (setting [41]) and in assay [20] (setting [41]) were 1.57 µM and 0.199 µM, respectively.
For GTGAGVPSK, the dissociation constant Kd in assay [7] (setting [42]) worked out at 1.14 µM; in [8] (setting [42]), 0.0113 µM; in [20] (source organism: Bacillus anthracis str. A0488), 0.644 µM.
For the sequence MPVMKRYSA, the values for the Kd in assay [1] (source organism: dengue virus type 4) and in assay [25] were at least 20 µM and 0.00838 µM, respectively.
For the sequence MTDAIRTLK, the Kd is 0.134 µM in [24] (setting [43]), 2.31 µM in assay [20] (setting [43]) and at least 20 µM in assay [26].
As for PHDPDFLVL, the Kd in assay [5] (setting [44]), in assay [6] (setting [44]), in [7] (setting [44]), in assay [27] (setting [44]), in assay [28] (setting [44]) and in [9] (setting [44]) was at least 20 µM in each case. Besides, the Kd in [10] (setting [44]) was at least 20 µM; in assay [12] (setting [44]), at least 20 µM; in assay [13] (setting [44]), at least 20 µM; in assay [21] (source organism: Mycolicibacterium gilvum PYR-GCK) it was 6.76 µM; in assay [14] (setting [44]) it was at least 20 µM; in assay [29], at least 20 µM. Further, the dissociation constant Kd in assay [15] (setting [44]), in [16] (setting [44]), in assay [17] (setting [44]) and in [18] (setting [44]) was at least 20 µM each time.
On to PLSRLFYPK, for which the Kd turned out to be 0.649 µM in [7] (setting [45]), 0.129 µM in assay [8] (setting [45]) and 0.0748 µM in assay [20] (setting [45]).
For TVDSLSPLK, the results for the Kd in assay [7] (setting [37]), in assay [8] (setting [37]) and in assay [20] (setting [37]) were 0.364 µM, 0.0123 µM and at least 20 µM, respectively.
For YLQAKSQVL, the Kd in assay [5] (setting [46]), in assay [7] (setting [46]), in assay [8] (setting [46]), in assay [30], in assay [27] (setting [46]) and in assay [28] (setting [46]) was at least 20 µM each time. Moreover, the Kd is at least 20 µM in [31]; at least 20 µM in assay [9] (setting [46]); 0.471 µM in assay [32]; at least 20 µM in assay [12] (setting [46]); at least 20 µM in [13] (setting [46]); at least 20 µM in assay [14] (setting [46]). The Kd in assay [15] (setting [46]), in assay [17] (setting [46]), in assay [18] (setting [46]), in assay [33], in assay [34] and in [35] was at least 20 µM in each case. The Kd in assay [36] was at least 20 µM.
Consider YRYEFNNDW, for which the Kd was at least 20 µM in assay [3] (source organism: Yersinia pestis CA88-4125) and 0.996 µM in assay [4] (source organism: Yersinia pseudotuberculosis IP 31758).

(Values after the Immune Epitope Database (IEDB).)
